Laboratory results taken from paper doi:10.1101/2020.02.24.961524.

Target: N-terminally SNAP-tagged GLP-1R (glucagon-like peptide-1 receptor) (UniProt P43220)
Assay: FRET or BRET

UniProt P43220, sequence (P43220 24-463): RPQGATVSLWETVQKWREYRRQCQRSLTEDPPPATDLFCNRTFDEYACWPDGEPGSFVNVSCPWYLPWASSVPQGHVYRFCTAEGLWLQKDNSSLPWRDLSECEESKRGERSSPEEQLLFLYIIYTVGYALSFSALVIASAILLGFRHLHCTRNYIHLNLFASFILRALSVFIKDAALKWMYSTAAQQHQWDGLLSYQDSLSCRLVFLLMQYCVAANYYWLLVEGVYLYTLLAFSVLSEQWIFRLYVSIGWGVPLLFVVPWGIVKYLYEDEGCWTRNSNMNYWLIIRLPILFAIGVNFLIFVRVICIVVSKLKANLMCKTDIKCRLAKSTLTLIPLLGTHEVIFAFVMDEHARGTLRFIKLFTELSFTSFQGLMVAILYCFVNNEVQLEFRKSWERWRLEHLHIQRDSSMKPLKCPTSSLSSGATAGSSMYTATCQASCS

“exendin-4 (from UniProt P26349 48-87) (peptide)” gave a fold affinity relative to GLP-1 of 5 fold.
